# Measurements as given in the supplement of paper PMC6755084.
# B1: minF1; the commonest letter at each place (parent)
# chain: GAGACCGCAACTGAAAAGTTGTTATCAGAAATGGATGGGTTGAATTTCTGCACGTAGAAGCAAAAGGC
# Variants of: B1
# Assay: fraction ligated after 30 min (ligated reads / total reads); higher = more ligase activity
# Conditions: with F1*subA RNA substrate (template-directed ligation), 42 °C
# Summary of the method: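 Using barcoded primers for reverse transcription and a MiSeq for sequencing, gel-separated ligated and unligated RNAs of minimized ligase ribozyme variants were read, with core-base filtering at quality ≥30. Fraction ligated per variant was defined as ligated reads over total reads.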
row,Variant,fraction ligated
1,GAGACCGCAACTGAAAAGTTGTTCTTAGAAATGGATGGGTTGAATTTCTGCACGTAGAAGCAAAAGGC [A24C C26T],0.0975
2,GAGACCGCAACTGAAAAGTTGTTCTCAGAAATGGACGGGTTGAATTTCTGCACGTAGAAGCAAAAGGC [A24C T36C],0.0109
3,GAGACCGCAACTGAAAAGTTGTTCTCAGAAATGGAAGGGTTGAATTTCTGCACGTAGAAGCAAAAGGC [A24C T36A],0.0726
4,GAGACCGCAACTGAAAAGTTGTTCTCAGAAATGGAGGGGTTGAATTTCTGCACGTAGAAGCAAAAGGC [A24C T36G],0.438
5,GAGACCGCAACTGAAAAGTTGTTGTGAGAAATGGATGGGTTGAATTTCTGCACGTAGAAGCAAAAGGC [A24G C26G],0.00544
6,GAGACCGCAACTGAAAAGTTGTTGTAAGAAATGGATGGGTTGAATTTCTGCACGTAGAAGCAAAAGGC [A24G C26A],0.0171
7,GAGACCGCAACTGAAAAGTTGTTGTTAGAAATGGATGGGTTGAATTTCTGCACGTAGAAGCAAAAGGC [A24G C26T],0.00563
8,GAGACCGCAACTGAAAAGTTGTTGTCAGAAATGGCTGGGTTGAATTTCTGCACGTAGAAGCAAAAGGC [A24G A35C],0.0163
9,GAGACCGCAACTGAAAAGTTGTTGTCAGAAATGGTTGGGTTGAATTTCTGCACGTAGAAGCAAAAGGC [A24G A35T],0.00297
10,GAGACCGCAACTGAAAAGTTGTTGTCAGAAATGGGTGGGTTGAATTTCTGCACGTAGAAGCAAAAGGC [A24G A35G],0.0312
11,GAGACCGCAACTGAAAAGTTGTTGTCAGAAATGGATGGGTTGAATTTCTGCACGTAGAAGCAAAAGGC [A24G],0.122
12,GAGACCGCAACTGAAAAGTTGTTTTCAGAAATGGATGGGTTGAATTTCTGCACGTAGAAGCAAAAGGC [A24T],0.011
13,GAGACCGCAACTGAAAAGTTGTTGTCAGAAATGTATGGGTTGAATTTCTGCACGTAGAAGCAAAAGGC [A24G G34T],0.000849
14,GAGACCGCAACTGAAAAGTTGTTGTCAGAAATGAATGGGTTGAATTTCTGCACGTAGAAGCAAAAGGC [A24G G34A],0.00498
15,GAGACCGCAACTGAAAAGTTGTTGTCAGAAATGCATGGGTTGAATTTCTGCACGTAGAAGCAAAAGGC [A24G G34C],0.00145
16,GAGACCGCAACTGAAAAGTTGTTGTCAAAAATGGATGGGTTGAATTTCTGCACGTAGAAGCAAAAGGC [A24G G28A],0.043
17,GAGACCGCAACTGAAAAGTTGTTGTCACAAATGGATGGGTTGAATTTCTGCACGTAGAAGCAAAAGGC [A24G G28C],0.065
18,GAGACCGCAACTGAAAAGTTGTTGTCATAAATGGATGGGTTGAATTTCTGCACGTAGAAGCAAAAGGC [A24G G28T],0.254
19,GAGACCGCAACTGAAAAGTTGTTGTCAGAAATGGATGGGTTGATTTTCTGCACGTAGAAGCAAAAGGC [A24G A44T],0.016
20,GAGACCGCAACTGAAAAGTTGTTGTCAGAAATGGATGGGTTGAGTTTCTGCACGTAGAAGCAAAAGGC [A24G A44G],0.0186
21,GAGACCGCAACTGAAAAGTTGTTGTCAGAAATGGATGGGTTGACTTTCTGCACGTAGAAGCAAAAGGC [A24G A44C],0.00892
22,GAGACCGCAACTGAAAAGTTGTTGACAGAAATGGATGGGTTGAATTTCTGCACGTAGAAGCAAAAGGC [A24G T25A],0.00617
23,GAGACCGCAACTGAAAAGTTGTTGGCAGAAATGGATGGGTTGAATTTCTGCACGTAGAAGCAAAAGGC [A24G T25G],0.00212
24,GAGACCGCAACTGAAAAGTTGTTGCCAGAAATGGATGGGTTGAATTTCTGCACGTAGAAGCAAAAGGC [A24G T25C],0.01
25,GAGACCGCAACTGAAAAGTTGTTGTCAGGAATGGATGGGTTGAATTTCTGCACGTAGAAGCAAAAGGC [A24G A29G],0.0952
26,GAGACCGCAACTGAAAAGTTGTTGTCAGTAATGGATGGGTTGAATTTCTGCACGTAGAAGCAAAAGGC [A24G A29T],0.116
27,GAGACCGCAACTGAAAAGTTGTTGTCAGCAATGGATGGGTTGAATTTCTGCACGTAGAAGCAAAAGGC [A24G A29C],0.0668

row,Variant,fraction ligated
1,GAGACCGCAACTGAAAAGTTGTTCTCAGAAACGGATGGGTTGAATTTCTGCACGTAGAAGCAAAAGGC [A24C T32C],0.00194
2,GAGACCGCAACTGAAAAGTTGTTCTCAGAAAAGGATGGGTTGAATTTCTGCACGTAGAAGCAAAAGGC [A24C T32A],0.00211
3,GAGACCGCAACTGAAAAGTTGTTCTCAGAAAGGGATGGGTTGAATTTCTGCACGTAGAAGCAAAAGGC [A24C T32G],0.00553
4,GAGACCGCAACTGAAAAGTTGTTCTCAGAAATGGATGGGTTTAATTTCTGCACGTAGAAGCAAAAGGC [A24C G42T],0.00251
5,GAGACCGCAACTGAAAAGTTGTTCTCAGAAATGGATGGGTTAAATTTCTGCACGTAGAAGCAAAAGGC [A24C G42A],0.00275
6,GAGACCGCAACTGAAAAGTTGTTCTCAGAAATGGATGGGTTCAATTTCTGCACGTAGAAGCAAAAGGC [A24C G42C],0.000786
7,GAGACCGCAACTGAAAAGTTGTTGTCAGAAATGGATTGGTTGAATTTCTGCACGTAGAAGCAAAAGGC [A24G G37T],0.00318
8,GAGACCGCAACTGAAAAGTTGTTGTCAGAAATGGATCGGTTGAATTTCTGCACGTAGAAGCAAAAGGC [A24G G37C],0.000862
9,GAGACCGCAACTGAAAAGTTGTTGTCAGAAATGGATAGGTTGAATTTCTGCACGTAGAAGCAAAAGGC [A24G G37A],0.00154
10,GAGACCGCAACTGAAAAGTTGTTCTCAGAAATTGATGGGTTGAATTTCTGCACGTAGAAGCAAAAGGC [A24C G33T],0.0129
11,GAGACCGCAACTGAAAAGTTGTTCTCAGAAATAGATGGGTTGAATTTCTGCACGTAGAAGCAAAAGGC [A24C G33A],0.0216
12,GAGACCGCAACTGAAAAGTTGTTCTCAGAAATCGATGGGTTGAATTTCTGCACGTAGAAGCAAAAGGC [A24C G33C],0.00418
13,GAGACCGCAACTGAAAAGTTGTTTTCAGCAATGGATGGGTTGAATTTCTGCACGTAGAAGCAAAAGGC [A24T A29C],0.0116
14,GAGACCGCAACTGAAAAGTTGTTTTCTGAAATGGATGGGTTGAATTTCTGCACGTAGAAGCAAAAGGC [A24T A27T],0.171
15,GAGACCGCAACTGAAAAGTTGTTTTCCGAAATGGATGGGTTGAATTTCTGCACGTAGAAGCAAAAGGC [A24T A27C],0.105
16,GAGACCGCAACTGAAAAGTTGTTTTCGGAAATGGATGGGTTGAATTTCTGCACGTAGAAGCAAAAGGC [A24T A27G],0.0839
17,GAGACCGCAACTGAAAAGTTGTTGTCAGAAATAGATGGGTTGAATTTCTGCACGTAGAAGCAAAAGGC [A24G G33A],0.294
18,GAGACCGCAACTGAAAAGTTGTTGTCAGAAATCGATGGGTTGAATTTCTGCACGTAGAAGCAAAAGGC [A24G G33C],0.0566
19,GAGACCGCAACTGAAAAGTTGTTGTCAGAAATTGATGGGTTGAATTTCTGCACGTAGAAGCAAAAGGC [A24G G33T],0.0804
20,GAGACCGCAACTGAAAAGTTGTTCCCAGAAATGGATGGGTTGAATTTCTGCACGTAGAAGCAAAAGGC [A24C T25C],0.0235
21,GAGACCGCAACTGAAAAGTTGTTCACAGAAATGGATGGGTTGAATTTCTGCACGTAGAAGCAAAAGGC [A24C T25A],0.0142
22,GAGACCGCAACTGAAAAGTTGTTCGCAGAAATGGATGGGTTGAATTTCTGCACGTAGAAGCAAAAGGC [A24C T25G],0.0197
23,GAGACCGCAACTGAAAAGTTGTTCTCAGAAATGAATGGGTTGAATTTCTGCACGTAGAAGCAAAAGGC [A24C G34A],0.0317
24,GAGACCGCAACTGAAAAGTTGTTCTCAGAAATGTATGGGTTGAATTTCTGCACGTAGAAGCAAAAGGC [A24C G34T],0.00294
25,GAGACCGCAACTGAAAAGTTGTTCTCAGAAATGCATGGGTTGAATTTCTGCACGTAGAAGCAAAAGGC [A24C G34C],0.00204
26,GAGACCGCAACTGAAAAGTTGTTGTCGGAAATGGATGGGTTGAATTTCTGCACGTAGAAGCAAAAGGC [A24G A27G],0.0437
27,GAGACCGCAACTGAAAAGTTGTTGTCCGAAATGGATGGGTTGAATTTCTGCACGTAGAAGCAAAAGGC [A24G A27C],0.254

row,Variant,fraction ligated
1,GAGACCGCAACTGAAAAGTTGTTGTCTGAAATGGATGGGTTGAATTTCTGCACGTAGAAGCAAAAGGC [A24G A27T],0.231
2,GAGACCGCAACTGAAAAGTTGTTGTCAGAGATGGATGGGTTGAATTTCTGCACGTAGAAGCAAAAGGC [A24G A30G],0.185
3,GAGACCGCAACTGAAAAGTTGTTGTCAGACATGGATGGGTTGAATTTCTGCACGTAGAAGCAAAAGGC [A24G A30C],0.0534
4,GAGACCGCAACTGAAAAGTTGTTGTCAGATATGGATGGGTTGAATTTCTGCACGTAGAAGCAAAAGGC [A24G A30T],0.058
5,GAGACCGCAACTGAAAAGTTGTTGTCAGAAATGGAAGGGTTGAATTTCTGCACGTAGAAGCAAAAGGC [A24G T36A],0.0103
6,GAGACCGCAACTGAAAAGTTGTTGTCAGAAATGGAGGGGTTGAATTTCTGCACGTAGAAGCAAAAGGC [A24G T36G],0.00746
7,GAGACCGCAACTGAAAAGTTGTTGTCAGAAATGGACGGGTTGAATTTCTGCACGTAGAAGCAAAAGGC [A24G T36C],0.0933
8,GAGACCGCAACTGAAAAGTTGTTGTCAGAAATGGATGGGTTAAATTTCTGCACGTAGAAGCAAAAGGC [A24G G42A],0.00347
9,GAGACCGCAACTGAAAAGTTGTTGTCAGAAATGGATGGGTTCAATTTCTGCACGTAGAAGCAAAAGGC [A24G G42C],0.00119
10,GAGACCGCAACTGAAAAGTTGTTGTCAGAAATGGATGGGTTTAATTTCTGCACGTAGAAGCAAAAGGC [A24G G42T],0.000969
11,GAGACCGCAACTGAAAAGTTGTTCTCAAAAATGGATGGGTTGAATTTCTGCACGTAGAAGCAAAAGGC [A24C G28A],0.0266
12,GAGACCGCAACTGAAAAGTTGTTCTCACAAATGGATGGGTTGAATTTCTGCACGTAGAAGCAAAAGGC [A24C G28C],0.0343
13,GAGACCGCAACTGAAAAGTTGTTCTCATAAATGGATGGGTTGAATTTCTGCACGTAGAAGCAAAAGGC [A24C G28T],0.0617
14,GAGACCGCAACTGAAAAGTTGTTCTCAGAAATGGATAGGTTGAATTTCTGCACGTAGAAGCAAAAGGC [A24C G37A],0.00687
15,GAGACCGCAACTGAAAAGTTGTTCTCAGAAATGGATTGGTTGAATTTCTGCACGTAGAAGCAAAAGGC [A24C G37T],0.00693
16,GAGACCGCAACTGAAAAGTTGTTCTCAGAAATGGATCGGTTGAATTTCTGCACGTAGAAGCAAAAGGC [A24C G37C],0.00569
17,GAGACCGCAACTGAAAAGTTGTTGTCAGAAGTGGATGGGTTGAATTTCTGCACGTAGAAGCAAAAGGC [A24G A31G],0.0578
18,GAGACCGCAACTGAAAAGTTGTTGTCAGAACTGGATGGGTTGAATTTCTGCACGTAGAAGCAAAAGGC [A24G A31C],0.0105
19,GAGACCGCAACTGAAAAGTTGTTGTCAGAATTGGATGGGTTGAATTTCTGCACGTAGAAGCAAAAGGC [A24G A31T],0.0427
20,GAGACCGCAACTGAAAAGTTGTTGTCAGAAAAGGATGGGTTGAATTTCTGCACGTAGAAGCAAAAGGC [A24G T32A],0.00439
21,GAGACCGCAACTGAAAAGTTGTTGTCAGAAAGGGATGGGTTGAATTTCTGCACGTAGAAGCAAAAGGC [A24G T32G],0.00185
22,GAGACCGCAACTGAAAAGTTGTTGTCAGAAACGGATGGGTTGAATTTCTGCACGTAGAAGCAAAAGGC [A24G T32C],0.00122
23,GAGACCGCAACTGAAAAGTTGTTGTCAGAAATGGATGGGTTGCATTTCTGCACGTAGAAGCAAAAGGC [A24G A43C],0.0035
24,GAGACCGCAACTGAAAAGTTGTTGTCAGAAATGGATGGGTTGGATTTCTGCACGTAGAAGCAAAAGGC [A24G A43G],0.00288
25,GAGACCGCAACTGAAAAGTTGTTGTCAGAAATGGATGGGTTGTATTTCTGCACGTAGAAGCAAAAGGC [A24G A43T],0.00328
